Results taken from IntAct's records for PubMed 8848052.

B1: mRNA export factor GLE1 (Saccharomyces cerevisiae), Q12315 (parent)
chain: MRFVFDEVFNSDTDSPEFEETCSTTSSTSSQCPTPEPSPAIKLPSFTKVGTKKLVNESVVILDPALENALRDLNLQSKLIPINEPIVAASSIIVPHSTNMPLPRASHSSLLDNAKNSNATAPLLEAIEESFQRKMQNLVLANQKEIQSIRENKRRVEEQRKRKEEEERKRKEAEEKAKREQELLRQKKDEEERKRKEAEAKLAQQKQEEERKKIEEQNEKERQLKKEHEAKLLQQKDKLGKAVTNFDKISKMFWHYKDKIAQIKQDIVLPIKKADVNVRNLLSRHKRKINPKFGQLTNSNQQLFKIQNELTQLINDTKGDSLAYHWILNFIAKAVVHQAETEVRVKPESALPLGKLTLYLLVQFPELQELFMARLVKKCPFVIGFTCEIDTEKGRQNMGWKRNNENKWEDNTSYDERMGGILSLFAIITRLQLPQEFITTTSHPFPIALSWHILARICNTPLNLITNTHFVILGSWWDAAAVQFLQAYGNQASKLLILIGEELTSRMAEKKYVGAARLRILLEAWQNNNMESFPEMSP
partner: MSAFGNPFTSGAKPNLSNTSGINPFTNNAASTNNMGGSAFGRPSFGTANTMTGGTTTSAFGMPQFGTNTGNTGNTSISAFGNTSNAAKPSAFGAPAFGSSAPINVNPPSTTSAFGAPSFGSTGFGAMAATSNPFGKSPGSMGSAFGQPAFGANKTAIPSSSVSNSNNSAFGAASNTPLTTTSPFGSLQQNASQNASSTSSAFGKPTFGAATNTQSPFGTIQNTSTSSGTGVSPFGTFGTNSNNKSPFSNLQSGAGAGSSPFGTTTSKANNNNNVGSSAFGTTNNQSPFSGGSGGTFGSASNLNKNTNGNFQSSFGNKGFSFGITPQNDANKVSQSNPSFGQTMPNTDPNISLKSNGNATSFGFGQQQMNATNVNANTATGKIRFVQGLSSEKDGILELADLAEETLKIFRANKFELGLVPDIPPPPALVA

Variants of: B1
Details: with nup42_yeast NUP42, P49686

Row | effect of a mutation on the interaction | Variant
1 | decreasing interaction | L356A
